# According to patent US20040002128:
# T1: AC-DEVD-CHO
# T1 chain: DEVD
# T2: sensor B, polyhistidine-tagged recombinant FRET probe (bacterial version) (not fully specified)
# T2 chain: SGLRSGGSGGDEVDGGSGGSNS
# T3: sensor A, polyhistidine-tagged recombinant FRET probe (bacterial version) (not fully specified)
# T3 chain: SGLRSGGDEVDGGSNS
# T4: CFP-YFP fusion protein, polyhistidine-tagged (bacterial version, no caspase substrate sequence)
# T4 chain: SGLRSRAQASNS
# What was measured:
# [1] = target: sensor C8, polyhistidine-tagged
# [2] = target: sensor C8A, polyhistidine-tagged
# AC-DEVD-CHO = target: T1, AC-DEVD-CHO
# [3] = target: T2, sensor B, polyhistidine-tagged …
# [4] = target: T3, sensor A, polyhistidine-tagged …
# [5] = target: T4, CFP-YFP fusion protein, …
protein,measurement,setting,value
caspase-8 (protein) SESQTLDKVYQMKSKPRGYCLIINNHNFAKAREKVPKLHSIRDRNGTHLDAGALTTTFEELHFEIKPHDDCTVEQIYEILKIYQLMDHSNMDCFICCILSHGDKGIIYGTDGQEAPIYELTSQFTGLKCPSLAGKPKVFFIQACQGDNYQKGIPVETDSEEQPYLEMDLSSPQTRYIPDEADFLLGMATVNNCVSYRNPAEGTWYIQSLCQSLRERCPRGDDILTILTEVNYEVSNKDDKKNMGKQMPQPTFTLRKKLVFPSD,"caspase-8 concentration that reduces the FRET effect by 50% (sensor 22.45 nM, one hour)",[1],about 5-fold more caspase-8 (3.4 nM) was required to produce the same FRET reduction for sensor C8
same,"caspase-8 needed for 50% FRET reduction, against sensor C8A",[1],about 5-fold more caspase-8 (3.4 nM) was required to produce the same FRET reduction for sensor C8
same,"cleavage, Western blot",[1],both sensor C8 and C8A could be cleaved by caspase-8 to release a CFP and a YFP molecule
same,"fraction of the sensor cleaved, band intensity on Western blot, caspase-8 216 nM, one hour",[1],only 58% of the sensor C8 protein was cleaved under the same condition
same,"caspase-8 concentration that reduces the FRET effect by 50% (sensor 22.45 nM, one hour)",[2],about 0.71 nM of caspase-8 was needed to reduce 50% of the FRET effect for sensor C8A
same,"cleavage, Western blot",[2],both sensor C8 and C8A could be cleaved by caspase-8 to release a CFP and a YFP molecule
same,"fraction of the sensor cleaved, band intensity on Western blot, caspase-8 216 nM, one hour",[2],95% of the sensor C8A protein was cleaved after incubation with caspase-8 (216 nM) for one hour
caspase-3 (protein) SGISLDNSYKMDYPEMGLCIIINNKNFHKSTGMTSRSGTDVDAANLRETFRNLKYEVRNKNDLTREEIVELMRDVSKEDHSKRSSFVCVLLSHGEEGIIFGTNGPVDLKKITNFFRGDRCRSLTGKPKLFIIQACRGTELDCGIETDSGVDDDMACHKIPVEADFLYAYSTAPGYYSWRNSKDGSWFIQSLCAMLKQYADKLEFMHILTRVNRKVATEFESFSFDATFHAKKQIPCIVSMLTKELYFYH,"cleavage of sensor A by caspase-3, Western blot",AC-DEVD-CHO,"In the presence of caspase-3 inhibitor (AC-DEVD-CHO), no FRET probe (sensor A) was cleaved"
same,"cleavage, Western blot",[3],caspase-3 can cleave almost all the sensor A and sensor B protein
same,decrease of the emission ratio of YFP/CFP,[3],decreased by 4-5 fold
same,"dosage-dependent caspase-3 cleavage assay, normalized emission ratio (YFP/CFP)",[3],"both FRET probes were highly sensitive to caspase-3, although sensor A appeared to be slightly more sensitive than sensor B"
same,emission ratio of YFP/CFP before and after caspase-3,[3],from 2.76 to 0.59 for sensor B
same,"cleavage, Western blot",[4],caspase-3 can cleave almost all the sensor A and sensor B protein
same,decrease of the emission ratio of YFP/CFP,[4],decreased by 4-5 fold
same,"dosage-dependent caspase-3 cleavage assay, normalized emission ratio (YFP/CFP)",[4],"both FRET probes were highly sensitive to caspase-3, although sensor A appeared to be slightly more sensitive than sensor B"
same,emission ratio of YFP/CFP before and after caspase-3,[4],from 3.02 to 0.59 for sensor A
same,"cleavage, Western blot",[5],no cleavage was seen for CFP-YFP fusion protein under the same condition
same,emission spectrum after caspase-3,[5],no change for the emission spectrum was observed from the CFP-YFP fusion protein which lacks the substrate sequence
